# Ends that are not written are not given here.
# Key:
# [1] = system: Heltog cells (HeLa cells constitutively expressing Cc-GFP); assay: Subcellular localization of Cc-GFP and ANP32A in Heltog cells after camptothecin; assay type: cell-based; conditions: 20 µM CPT, 1 or 4 h, confocal microscopy
# Description: After 1 h or 4 h of CPT treatment, nuclei were stained by incubating cells with 1 µg mL^−1 Hoechst (Sigma‐Aldrich) for 10 min at 37 °C. Cells were then rinsed in pre‐warmed PBS at 37 °C to remove media traces, fixed by immersing the coverslips in a 4% formaldehyde (Sigma‐Aldrich) solution prepared in PBS for 10 min at room temperature, and then washed in pre‐warmed PBS at 37 °C. Cells were dried by incubating the coverslips in absolute ethanol for 2 min. Afterward, coverslips were mounted into glass slides using N‐propyl gallate (Sigma‐Aldrich), to preserve the fluorescence, and sealed with nail polish. Images were obtained in a Zeiss LSM 7 DUO confocal microscope using a 63× oil objective. For calcium phosphate transfection, 2.5 × 10^6 HEK293T cells were cultured in 150 mm diameter plates. After 72 h of growth, media was refreshed prior to transfection. For subcellular localization assays; 50,000 Heltog cells were grown over coverslips placed in 15.6 mm well plates for 24 h before transfection. DNA damage was then induced by replacing media for one containing 20 µM of camptothecin (CPT) and incubating cells for 1 h or 4 h. […] Afterwards, coverslips were mounted into glass slides using N-propyl gallate (Sigma-Aldrich), to preserve the fluorescence, and sealed with nail polish. […]
# cytochrome c [2] = target: T1, cytochrome c (Homo sapiens, UniProt P99999); assay: ITC titration of ANP32A/B C-terminal peptides with reduced Cc; conditions: single binding-site model; 1 mM peptide onto 110 or 150 µM reduced Cc; 10 mM sodium phosphate pH 6.3; relative error 20%
# T1 construct: obtained by immunizing male rabbits with full-length recombinant Cc; made in house; host or cells: E. coli BL21 (DE3)
# T1 sequence (P99999 whole entry): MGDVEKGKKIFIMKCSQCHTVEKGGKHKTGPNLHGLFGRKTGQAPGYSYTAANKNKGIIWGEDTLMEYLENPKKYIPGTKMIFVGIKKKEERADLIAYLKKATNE
# Description: Isothermal titration calorimetry (ITC) experiments were performed using a Nano ITC Low Volume instrument (TA Instruments, USA). The reference cell was filled with distilled water. Titration experiments between reduced Cc and ANP32A or ANP32A1‐167 consisted of 17 injections of 2.91 µL of a 400 µM reduced Cc solution into the sample cell containing 50 µM ANP32A construct. Both Cc and ANP32A proteins were dialyzed against 10 mM sodium phosphate buffer pH 7.4. Assays performed at moderate ionic strength used the same experimental setup, but proteins were dialyzed against 20 mM sodium phosphate pH 7.4 with 50 mM NaCl. […] ANP32A, ANP32A230‐249 and ANP32B232‐251 titration data were analyzed using Origin 7.0 (OriginLab), employing a single‐ligand binding site model or a two‐ligand binding sites model. […] ANP32A1‐167 titration data was processed and analyzed using NanoAnalyze software (TA instruments).
# ITC experiments were performed using a Nano ITC Low Volume instrument (TA Instruments, USA). […] ANP32A, ANP32A230-249 and ANP32B232-251 titration data was analyzed using Origin 7.0 (OriginLab), employing a single ligand binding site model or a two ligand binding sites model. […] ANP32A1-167 titration data were processed and analyzed using NanoAnalyze software (TA instruments).
# cytochrome c [3] = target: T1, cytochrome c; assay: ITC titration of full-length ANP32A or ANP32A1-167 with reduced Cc; assay type: binding; conditions: for Kd: relative error 20%; for n (reaction stoichiometry): error 0.03; for ΔG: error 0.1 kcal/mol
# Description: Isothermal titration calorimetry (ITC) experiments were performed using a Nano ITC Low Volume instrument (TA Instruments, USA). The reference cell was filled with distilled water. Titration experiments between reduced Cc and ANP32A or ANP32A1‐167 consisted of 17 injections of 2.91 µL of a 400 µM reduced Cc solution into the sample cell containing 50 µM ANP32A construct. Both Cc and ANP32A proteins were dialyzed against 10 mM sodium phosphate buffer pH 7.4. Assays performed at moderate ionic strength used the same experimental setup, but proteins were dialyzed against 20 mM sodium phosphate pH 7.4 with 50 mM NaCl. Assays using ANP32A230‐249 or ANP32B232‐251 peptides were performed by titrating 1 mM peptide solution onto 110 or 150 µM reduced Cc solutions, respectively, or onto 100 µM HuR106‐326 solution, following the same injection configuration as described for ANP32A proteins. Cc and HuR106‐326 solutions were dialyzed against 10 mM sodium phosphate buffer pH 6.3; peptides were dissolved in the same solution. The stirring speed was set to 200 rpm for HuR106‐326 titration experiments and to 300 rpm for Cc titration experiments, to ensure cell homogeneity. ANP32A, ANP32A230‐249 and ANP32B232‐251 titration data were analyzed using Origin 7.0 (OriginLab), employing a single‐ligand binding site model or a two‐ligand binding sites model. In the last case, no binding cooperativity was observed. ANP32A1‐167 titration data was processed and analyzed using NanoAnalyze software (TA instruments).
# ITC experiments were performed using a Nano ITC Low Volume instrument (TA Instruments, USA). The reference cell was filled with distilled water. Titration experiments between reduced Cc and ANP32A or ANP32A1-167 consisted of 17 injections of 2.91 µL of a 400 µM reduced Cc solution into the sample cell containing 50 µM ANP32A construct. Both Cc and ANP32A proteins were dialyzed against 10 mM sodium phosphate buffer pH 7.4. Assays performed at moderate ionic strength used the same experimental setup, but proteins were dialyzed against 20 mM sodium phosphate pH 7.4 with 50 mM NaCl. Assays using ANP32A230-249 and ANP32B232-251 peptides were performed by titrating 1 mM peptide solution onto 110 or 150 µM reduced Cc solutions, respectively, or onto 100 µM HuR106-326 solution, following the same injection configuration as described for ANP32A proteins. Cc and HuR106-326 solutions were dialyzed against 10 mM sodium phosphate buffer pH 6.3; peptides were dissolved in the same solution. The stirring speed was set to 200 rpm for HuR106-326 titration experiments and to 300 rpm for Cc titration experiments, to ensure cell homogeneity. ANP32A, ANP32A230-249 and ANP32B232-251 titration data was analyzed using Origin 7.0 (OriginLab), employing a single ligand binding site model or a two ligand binding sites model. In the last case, no binding cooperativity was observed. ANP32A1-167 titration data were processed and analyzed using NanoAnalyze software (TA instruments).
# 15N-labeled Cc = assay: NMR titration (1H-15N HSQC) of 15N Cc with ANP32A or ANP32A1-167; assay type: binding; conditions: low ionic strength; 25 °C
# Description: NMR titrations of 30 µM ^15N reduced Cc with ^14N ANP32A constructs were followed by 1D ^1H and 2D ^1H-^15N heteronuclear single quantum correlation (HSQC) spectra on a Bruker Avance-III 600 MHz equipped with a cryoprobe at 25 °C. ^15N-labelled reduced Cc (in 10 mM sodium phosphate buffer, pH 7.4) was titrated with increasing amounts of ^14N ANP32A dialyzed against the same buffer. Reduced ^15N Cc and ^14N ANP32A1-167 construct were titrated in 5 mM sodium phosphate buffer pH 6.4. To maintain the redox state of Cc and to adjust the lock signal on the NMR spectrometer, 0.1 mM of sodium ascorbate and 10% of D2O were added, respectively. Data were acquired and processed using TopSpin NMR 3.5pl7 software (Bruker).
# Line broadening and chemical-shift perturbation analysis were performed using the Sparky 3 NMR assignment tool (T.D. Goddard and D.G. Kneller, University of California San Francisco, USA). Assignment of ANP32A230-249 and ANP32B232-251 peptides was performed using NMRFAM-SPARKY software distribution (National Magnetic Resonance Facility at Madison) and further imported to CCPNMR ^[1], whereby distance restraints were calculated using its built-in module.
# recombinant Cc = assay: Cc pulldown assay with HEK293T extracts; assay type: binding; conditions: HEK293T extracts expressing ANP32A-c-myc, Western blot
# Description: Pulldown assays were performed as previously described.^[ [31] ^] Briefly, transfected HEK293T cells were resuspended in a lysis buffer containing 10 mM Tricine‐NaOH pH 8.5, 1 mM PMSF, and cOmplete protease inhibitors (Roche). Afterward, cells were lysed by sonication (10 s, 10% amplitude, on ice), and the resulting debris was discarded after 15 min of centrifugation at 13300 rpm and 4 °C. More details on the procedure were given in the Supporting Information Appendix.
# Pulldown assays were performed as previously described ^[6^]. Briefly, transfected HEK293T cells were resuspended in a lysis buffer containing 10 mM Tricine-NaOH pH 8.5, 1 mM PMSF and cOmplete™ protease inhibitors (Roche). Afterwards, cells were lysed by sonication (10 s, 10% amplitude, on ice), and the resulting debris was discarded after 15 min of centrifugation at 13,300 rpm and 4 °C.
# Cc pulldown assays were carried out by incubating cell extracts with 100 µg of recombinant Cc for 16 h at 4 °C in batch. A carboxymethylcellulose matrix (Whatman) was added, and the mixture was incubated for 30 min at 4 °C in batch. To remove possible non-specific binding, the matrix was washed 3 times with 1 mL of washing buffer containing 10 mM Tricine-NaOH pH 8.5, 20 mM NaCl, 1 mM PMSF and cOmplete™ protease inhibitors. […]
# histone H3 = assay: Coimmunoprecipitation of c-myc-ANP32A/B with histone H3; assay type: binding; conditions: anti-c-myc, Western blot; representative of three experiments
# Description: HEK293T cells were transfected with a plasmid encoding ANP32A/b-c-myc. 24 h after transfection, cells were collected for lysates preparation in buffer containing 20 mM Tris-HCl pH 7.5, 100 mM NaCl, 0.5% NP40, 0.1 mM PMSF and cOmplete™. Cells were lysed by sonication and precleared by incubation with sepharose-A beads (GE Healthcare, GE17-5280-01) for 1 h at 4 °C. The lysates were then incubated with anti-c-myc (see Pull-down assays) over night at 4 °C and subsequently with sepharose-A beads (GE Healthcare, GE17-5280-01) for 1 h at room temperature with rotation. Following 6 washes with PBS, the samples were resuspended in SDS loading buffer and analyzed by western blotting.
# [4] = low ionic strength 25 mM, first listed of two independent sites, 10 mM sodium phosphate pH 7.4
# [5] = low ionic strength 25 mM, second listed of two independent sites, 10 mM sodium phosphate pH 7.4
# [6] = moderate ionic strength 100 mM, single site, 20 mM sodium phosphate pH 7.4, 50 mM NaCl
# [7] = moderate ionic strength 100 mM, single site, 20 mM sodium phosphate pH 7.4, 50 mM NaCl, error 0.4 kcal/mol
compound,measurement,setting,value
CC[C@@]1(O)C(=O)OCc2c1cc1n(c2=O)Cc2cc3ccccc3nc2-1 [camptothecin],"Cc-GFP localization after camptothecin, in words",[1],Cc‐GFP translocated into the cell nucleus
EEERGEKRKRETEDEGEDDD [ANP32A230‐249 Q235E/P241T],Kd,cytochrome c [2],190 µM
"ANP32A: full-length recombinant acidic leucine‐rich nuclear phosphoprotein 32 A, histone chaperone",Kd,"cytochrome c [3]; low ionic strength 25 mM, first listed of two independent sites, 10 mM sodium phosphate pH 7.4, 400 µM reduced Cc into 50 µM ANP32A",3.6 µM
same,n (reaction stoichiometry),cytochrome c [3]; [4],0.65
same,ΔG,cytochrome c [3]; [4],-7.4 kcal/mol
same,ΔH,"cytochrome c [3]; low ionic strength 25 mM, first listed of two independent sites, 10 mM sodium phosphate pH 7.4, error 0.4 kcal/mol",0.4 kcal/mol
same,Kd,"cytochrome c [3]; low ionic strength 25 mM, second listed of two independent sites, 10 mM sodium phosphate pH 7.4, 400 µM reduced Cc into 50 µM ANP32A",34 µM
same,n (reaction stoichiometry),cytochrome c [3]; [5],0.65
same,ΔG,cytochrome c [3]; [5],-6.1 kcal/mol
same,"binding to Cc by ITC, in words",cytochrome c [3]; low ionic strength (25 mM),"two molecules of Cc bind the ANP32A LCAR at independent binding sites, with no observed cooperativity"
same,n (reaction stoichiometry),cytochrome c [3]; [6],0.60
same,ΔG,cytochrome c [3]; [6],-6.1 kcal/mol
same,ΔH,cytochrome c [3]; [7],1.5 kcal/mol
same,–TΔS,cytochrome c [3]; [7],-7.6 kcal/mol
same,Kd,cytochrome c [3]; [6],32 µM
same,"binding to Cc by ITC, in words",cytochrome c [3]; moderate ionic strength (100 mM),one of the two binding sites was lost
same,"chemical-shift perturbations of Cc amide signals, in words",15N-labeled Cc,specific chemical‐shift perturbations and substantial broadening
same,"Cc pulldown result, in words",recombinant Cc,Cc interacts with ANP32A
same,"coimmunoprecipitation of histone H3, in words",histone H3,H3 binds both ANP32 proteins in a similar manner
EEERGQKRKRETEDEGEDDD [ANP32A230‐249 P241T],Kd,cytochrome c [2],190 µM

# Reference: publication PMC11948038, “Evolutionary Pro‐To‐Thr Mutation in the Intrinsically Disordered Domain of ANP32 Family Members Modulates Their Target Binding Modes” (Advanced Science, 2025)
